Assay results reported in paper PMC6957272, “Activation of a nucleotide-dependent RCK domain requires binding of a cation cofactor to a conserved site” (eLife, 2019).

T1: KtrB (B. subtilis, UniProt O32081 1-445)
T1 construct: KtrB, membrane protein of the B. subtilis KtrAB cation channel; The Strep tag held KtrB on Strep-Tactin beads while KtrA was added to assemble the complex; it was cleaved by thrombin before the size-exclusion step; also called wild-type KtrB; source: E. coli BL21(DE3), extracted with DDM, purified (Strep-Tactin Sepharose, size exclusion); not shown: Strep, N-terminal, cleaved
T1 sequence (looked up): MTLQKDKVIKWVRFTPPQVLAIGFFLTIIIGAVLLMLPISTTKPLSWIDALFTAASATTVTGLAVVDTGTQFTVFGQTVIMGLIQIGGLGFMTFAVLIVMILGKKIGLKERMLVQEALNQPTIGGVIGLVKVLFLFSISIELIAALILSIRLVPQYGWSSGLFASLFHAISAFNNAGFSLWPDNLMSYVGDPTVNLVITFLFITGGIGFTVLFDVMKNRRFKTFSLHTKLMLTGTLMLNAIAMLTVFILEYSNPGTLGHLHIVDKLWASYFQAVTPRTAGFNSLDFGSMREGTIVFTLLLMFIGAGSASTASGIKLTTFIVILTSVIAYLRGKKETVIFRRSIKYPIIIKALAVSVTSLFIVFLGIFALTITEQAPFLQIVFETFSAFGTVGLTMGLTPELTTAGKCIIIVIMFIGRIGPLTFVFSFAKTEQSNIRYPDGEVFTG


Key:
[1] = target: the molecule itself; assay: crystal structure; KtrA (WT and mutants) with 1 mM ATP or ADP, sitting-drop vapor diffusion at 20°C; WT-ATP with 5 mM CaCl2
[2] = target: T1, KtrB; assay: SEC; purified KtrA-ATP (or ADP) added to Strep-KtrB on Strep-Tactin beads, 30 min 4°C, washed, eluted with desthiobiotin, tag cleaved by thrombin, then Superdex-S200 in Buffer F (10 mM HEPES, 7 mM NMG pH 8.0, 150 mM KCl, 0.5 mM DDM, 5 mM DTT, 0.2 mM EDTA); conditions: both partners purified
[3] = target: the molecule itself; assay: SEC; KtrA alone, bound to ATP or ADP; Superdex-S200, Buffer C (50 mM Tris-HCl pH 7.5, 150 mM KCl, 5 mM DTT, 0.2 mM EDTA)

Binder	stoichiometry N [1]	binding result [2]	stoichiometry N [3]
wild-type KtrA (natural protein, B. subtilis, KtrA, RCK domain protein of the B. subtilis KtrAB cation channel; tag-less; Tag-less, cloned in a modified pET-24d vector; eluted from ATP-agarose with ATP or ADP and kept with 1 mM nucleotide; also called KtrAWT; WT; source: E. coli BL21(DE3), purified (anion exchange, ATP-agarose, size exclusion)) MGRIKNKQFAVIGLGRFGGSICKELHRMGHEVLAVDINEEKVNAYASYATHAVIANATEENELLSLGIRNFEYVIVAIGANIQASTLTTLLLKELDIPNIWVKAQNYYHHKVLEKIGADRIIHPEKDMGVKIAQSLSDENVLNYIDLSDEYSIVELLATRKLDSKSIIDLNVRAKYGCTILAIKHHGDICLSPAPEDIIREQDCLVIMGHKKDIKRFENEGM	8	binds	
KtrA R16K mutant (natural protein, B. subtilis, KtrA of B. subtilis with R16K; tag-less; source: E. coli BL21(DE3), purified (anion exchange, ATP-agarose, size exclusion)) MGRIKNKQFAVIGLGKFGGSICKELHRMGHEVLAVDINEEKVNAYASYATHAVIANATEENELLSLGIRNFEYVIVAIGANIQASTLTTLLLKELDIPNIWVKAQNYYHHKVLEKIGADRIIHPEKDMGVKIAQSLSDENVLNYIDLSDEYSIVELLATRKLDSKSIIDLNVRAKYGCTILAIKHHGDICLSPAPEDIIREQDCLVIMGHKKDIKRFENEGM	8		
KtrA R16A mutant (natural protein, B. subtilis, KtrA of B. subtilis with R16A; tag-less; source: E. coli BL21(DE3), purified (anion exchange, ATP-agarose, size exclusion)) MGRIKNKQFAVIGLGAFGGSICKELHRMGHEVLAVDINEEKVNAYASYATHAVIANATEENELLSLGIRNFEYVIVAIGANIQASTLTTLLLKELDIPNIWVKAQNYYHHKVLEKIGADRIIHPEKDMGVKIAQSLSDENVLNYIDLSDEYSIVELLATRKLDSKSIIDLNVRAKYGCTILAIKHHGDICLSPAPEDIIREQDCLVIMGHKKDIKRFENEGM	8	binds	
KtrA A80P mutant (natural protein, B. subtilis, KtrA of B. subtilis with A80P; tag-less; source: E. coli BL21(DE3), purified (anion exchange, ATP-agarose, size exclusion)) MGRIKNKQFAVIGLGRFGGSICKELHRMGHEVLAVDINEEKVNAYASYATHAVIANATEENELLSLGIRNFEYVIVAIGPNIQASTLTTLLLKELDIPNIWVKAQNYYHHKVLEKIGADRIIHPEKDMGVKIAQSLSDENVLNYIDLSDEYSIVELLATRKLDSKSIIDLNVRAKYGCTILAIKHHGDICLSPAPEDIIREQDCLVIMGHKKDIKRFENEGM		binds	8
KtrA E125Q mutant (natural protein, B. subtilis, KtrA of B. subtilis with E125Q; tag-less; source: E. coli BL21(DE3), purified (anion exchange, ATP-agarose, size exclusion)) MGRIKNKQFAVIGLGRFGGSICKELHRMGHEVLAVDINEEKVNAYASYATHAVIANATEENELLSLGIRNFEYVIVAIGANIQASTLTTLLLKELDIPNIWVKAQNYYHHKVLEKIGADRIIHPQKDMGVKIAQSLSDENVLNYIDLSDEYSIVELLATRKLDSKSIIDLNVRAKYGCTILAIKHHGDICLSPAPEDIIREQDCLVIMGHKKDIKRFENEGM	8	binds	
